# Substitutions are numbered along the chain they refer to. In names and notes the source's numbering stands.
# B1: M93A: 5HT2C receptor mutant, M93 to alanine (protein, UniProt P28335 33-458, looked up, variant M93A)
# 5-hydroxytryptamine receptor …: IVTDIFNTSDGGRFKFPDGVQNWPALSIVIIIIMTIGGNILVIMAVSMEKKLHNATNYFLASLAIADMLVGLLVMPLSLLAILYDYVWPLPRYLCPVWISLDVLFSTASIMHLCAISLDRYVAIRNPIEHSRFNSRTKAIMKIAIVWAISIGVSVPIPVIGLRDEEKVFVNNTTCVLNDPNFVLIGSFVAFFIPLTIMVITYCLTIYVLRRQALMLLHGHTEEPPGLSLDFLKCCKRNTAEEENSANPNQDQNARRRKKKERRPRGTMQAINNERKASKVLGIVFFVFLIMWCPFFITNILSVLCEKSCNQKLMEKLLNVFVWIGYVCSGINPLVYTLFNKIYRRAFSNYLRCNYKVEKKPPVRQIPRVAATALSGRELNVNIYRHTNEPVIEKASDNEPGIEMQVENLELPVNPSSVVSERISSV
# B2: 1363: 5HT2C receptor mutant, residue 7.48 to alanine (protein, listed as Homo sapiens)
# chain: MVNLRNAVHSFLVHLIGLLVWQCDISVSPVAAIVTDIFNTSDGGRFKFPDGVQNWPALSIVIIIIMTIGGNILVIMAVSMEKKLHNATNYFLMSLAIADMLVGLLVMPLSLLAILYDYVWPLPRYLCPVWISLDVLFSTASIMHLCAISLDRYVAIRNPIEHSRFNSRTKAIMKIAIVWAISIGVSVPIPVIGLRDEEKVFVNNTTCVLNDPNFVLIGSFVAFFIPLTIMVITYCLTIYVLRRQALMLLHGHTEEPPGLSLDFLKCCKRNTAEEENSANPNQDQNARRRKKKERRPRGTMQAINNERKASKVLGIVFFVFLIMWCPFFITNILSVLCEKSCNQKLMEKLLNVFVWIGYVCSGANPLVYTLFNKIYRRAFSNYLRCNYKVEKKPPVRQIPRVAATALSGRELNVNIYRHTNEPVIEKASDNEPGIEMQVENLELPVNPSSVVSERISSV
# B3: Y368A: 5HT2C receptor NPLVY motif mutant Y368A (protein, UniProt P28335 33-458, looked up, variant Y368A)
# 5-hydroxytryptamine receptor …: B1 5-hydroxytryptamine receptor … with A61M, Y336A
# B4: P365A: 5HT2C receptor NPLVY motif mutant P365A (protein, UniProt P28335 33-458, looked up, variant P365A)
# 5-hydroxytryptamine receptor …: B1 5-hydroxytryptamine receptor … with A61M, P333A
# B5: V367A: 5HT2C receptor NPLVY motif mutant V367A (protein, UniProt P28335 33-458, looked up, variant V367A)
# 5-hydroxytryptamine receptor …: B1 5-hydroxytryptamine receptor … with A61M, V335A
# B6: N364A: 5HT2C receptor NPLVY motif mutant N364A (protein, UniProt P28335 33-458, looked up, variant N364A)
# 5-hydroxytryptamine receptor …: B1 5-hydroxytryptamine receptor … with A61M, N332A
# B7: P285A: adenosine A2A receptor NPFIY motif mutant P285A (protein, UniProt P29274 1-412, looked up, variant P285A)
# Adenosine receptor A2a: MPIMGSSVYITVELAIAVLAILGNVLVCWAVWLNSNLQNVTNYFVVSLAAADIAVGVLAIPFAITISTGFCAACHGCLFIACFVLVLTQSSIFSLLAIAIDRYIAIRIPLRYNGLVTGTRAKGIIAICWVLSFAIGLTPMLGWNNCGQPKEGKNHSQGCGEGQVACLFEDVVPMNYMVYFNFFACVLVPLLLMLGVYLRIFLAARRQLKQMESQPLPGERARSTLQKEVHAAKSLAIIVGLFALCWLPLHIINCFTFFCPDCSHAPLWLMYLAIVLSHTNSVVNAFIYAYRIREFRQTFRKIIRSHVLRQQEPFKAAGTSARVLAAHGSDGEQVSLRLNGHPPGVWANGSAPHPERRPNGYALGLVSGGSAQESQGNTGLPDVELLSHELKGVCPEPPGLDDPLAQDGAGVS
# B8: Y288A: adenosine A2A receptor NPFIY motif mutant Y288A (protein, UniProt P29274 1-412, looked up, variant Y288A)
# Adenosine receptor A2a: B7 Adenosine receptor A2a with A285P, Y288A
# B9: F286A: adenosine A2A receptor NPFIY motif mutant F286A (protein, UniProt P29274 1-412, looked up, variant F286A)
# Adenosine receptor A2a: B7 Adenosine receptor A2a with A285P, F286A
# B10: 287A: adenosine A2A receptor NPFIY motif mutant, residue 287 to alanine (protein, UniProt P29274 1-412, looked up, variant I287A)
# Adenosine receptor A2a: B7 Adenosine receptor A2a with A285P, I287A
# Test system: 5HT2C receptor
# Assay: Thermostability of 5HT2C receptor bound to agonist SCH23390
# Type: physicochemical, human
# Details: agonist SCH23390 bound, versus parent 5HT2C
# Protocol: An alanine scan has been carried out on the 5HT2C receptor in the presence of the agonist SCH23390 in order to stabilise the agonist conformation. Similar to A2A, it appears that mutating L2.46 (L95 in 5HT2C) to alanine confers significant stability on this receptor increasing the Tm of the receptor by 5.4° C. (FIG. 7). It is notable that in addition to L95, mutating the nearby M93 (two residues away from L2.46) to alanine also confers stability to the agonist bound receptor, resulting in an increase of 2.9° C.
# A2AR-(2-316) expression was carried out by using the pRG/III-hs-MBP E. coli expression vector and DH5α cells. Cells were grown at 37° C. in 2 L flasks containing 500 mL of 2×TY medium supplemented with Ampicillin (100 μg/mL) and glucose (0.2% w/v). At OD600≈0.7, IPTG and theophylline were added at final concentrations respectively of 0.5 mM and 100 μM, and the temperature was reduced to 20° C. After 22 to 24 hours, cells were harvested in aliquots of 14 mL, centrifuged for 30 min and stored at −20° C. Both 5HT2C and M4 receptors were transiently expressed in HEK293T cells using GeneJuice transfection reagent used according to the manufacturers guidelines.
# 5HT2C receptor was solubilised from transiently transfected mammalian cells in 50 mM Hepes pH7.4, 100 mM KCl, 0.5% DDM (0.1% CHS/0.6% CHAPS was added to cells for SCH23390 agonist assay). Tm analysis was performed directly on the soluble lysate. The Tm was determined by incubating 108 μl of the lysate with [N^6-methyl-^3H]Mesulergine radioligand at a final concentration of 17 nM or 9 nM [^3H]SCH23390 for one hour at 4° C. The six ligand incubations are then incubated at six different temperatures from 25° C. to 55° C., for thirty minutes. Receptor bound and free radioligand were separated using a 96-well plate gel filtration assay.
# (§1) 5HT2C receptor was solubilised from transiently transfected mammalian cells about 40 hours post transfection, in 50 mM Hepes pH7.4/100 mM KCl/0.5% DDM/(0.1% CHS/0.6% CHAPS was added to cells for SCH23390 agonist assay) and protease inhibitor. Cell lysates were left at 4° C. on a rotator and then cleared by centrifugation at 13,200 rpm for 20 minutes at 4° C. Thermostability analysis was performed directly on the soluble lysate. The Tm was determined by incubating 108 μl of the lysate with [N^6-methyl-^3H]Mesulergine radioligand at a final concentration of 17 nM or 9 nM [^3H]SCH23390 for one hour at 4° C. The six ligand incubations are then incubated at six different temperatures from 25° C. to 55° C., for thirty minutes. Receptor bound and free radioligand were separated using G25 Sephadex spin columns.
row,Molecule,increase of Tm [°C]
1,B1,2.9

# Same assay, conditions: bound to agonist SCH23390
row,Molecule,Tm [°C]
1,B1,45.6

# Test system: 5HT2C receptor
# Assay: Two point thermostability assay, SCH23390 agonist binding to 5HT2C alanine scan mutants
# Type: physicochemical, human
# Details: not given
# Protocol: An alanine scan has been carried out on the 5HT2C receptor in the presence of the agonist SCH23390 in order to stabilise the agonist conformation.
# as §1
row,Molecule,thermostability (agonist binding at the destabilising temperature compared to wild type)
1,B2,increased agonist binding compared to the wild type receptor

# Test system: 5HT2C receptor
# Assay: Antagonist binding to 5HT2C NPxxY motif alanine mutants (Table 1)
# Design: species or system human; Average / Average - BG: unit not given here
# Details: antagonist Mesulergine binding
# Protocol: (§2) An alanine scan was carried out in a similar fashion on an adenosine A2A receptor along with the 5HT2C receptor in the presence of the antagonist Mesulergine. Both alanine scans were carried out in order to further stabilize the antagonist conformation. […] The motif in Adenosine A2A is NPFIY (SEQ ID NO: 364) and for the 5HT2C is NPLVY (SEQ ID NO: 363). Therefore mutations in this region of the receptor contain stabilising mutations specific to the agonist conformation and detrimentally effect antagonist binding.
# as §1
row,Molecule,% of Wildtype binding [%]
1,B3,11.22
2,B4,14.94
3,B5,22.25
4,B6,36.35

# Same assay, conditions: antagonist Mesulergine binding, replicate 1
row,Molecule,DPM1 [DPM]
1,B3,1328
2,B4,1855
3,B5,2512
4,B6,3988

# Same assay, conditions: antagonist Mesulergine binding, replicate 2
row,Molecule,DPM2 [DPM]
1,B3,1602
2,B4,1760
3,B5,2449
4,B6,3569

# Same assay, conditions: average minus background
row,Molecule,Average - BG
1,B3,1033.5
2,B4,1376
3,B5,2049
4,B6,3347

# Same assay, conditions: average of DPM1 and DPM2
row,Molecule,Average
1,B3,1465
2,B4,1807.5
3,B5,2480.5
4,B6,3778.5

# Test system: adenosine A2A receptor
# Assay: Antagonist binding to adenosine A2A NPxxY motif alanine mutants (Table 1)
# Design: species or system human
# Details: antagonist binding
# Protocol: as §2
# Adenosine A2A receptor was solubilised from transiently transfected mammalian cells about 36 hours post transfection, in 50 mM Tris pH7.4/400 mM NaCl/0.5% DDM and protease inhibitor. Cell lysates were left at 4° C. on a rotator and then cleared by centrifugation at 13,200 rpm for 20 minutes at 4° C. Solubilised receptors were then purified on Ni-NTA beads and eluted with 50 mM histidine. The eluted receptor was used in radioligand binding assay. The Tm was determined by incubating 108 μl of the eluate with Zm241385 radioligand at a final concentration of 100 nM for one hour at 4° C. The six ligand incubations are then incubated at six different temperatures from 20° C. to 50° C., for thirty minutes. Receptor bound and free radioligand were separated using G25 Sephadex spin columns.
row,Molecule,% of Wildtype binding [%]
1,B7,7.69
2,B8,14.74
3,B9,0.13
4,B10,2.78

# Same assay, conditions: antagonist binding, replicate 1
row,Molecule,DPM1 [DPM]
1,B7,1488
2,B8,2150
3,B9,519
4,B10,888

# Same assay, conditions: antagonist binding, replicate 2
row,Molecule,DPM2 [DPM]
1,B7,1471
2,B8,2602
3,B9,514
4,B10,820

# Same assay, conditions: average minus background
row,Molecule,Average - BG
1,B7,979.5
2,B8,1876
3,B9,16.5
4,B10,354

# Same assay, conditions: average of DPM1 and DPM2
row,Molecule,Average
1,B7,1479.5
2,B8,2376
3,B9,516.5
4,B10,854
